This is an account of results in US20250188179A1 (ADAGENE PTE, published 2025).

Experiment [1] addresses T1, hCD137 (antigen of the ELISA and FACS assays of Example 2) (human, UniProt Q07011 24-186, limits assumed).
T1 construct: also called human CD137
In words: ELISA on hCD137, absorbance at 450 nm; masked antibody without MMP9 treatment. In general terms: In an ELISA, binding on a coated surface is turned into a signal by an enzyme label.

Experiment [2] addresses T2, full-length human CD137 with C-terminal 3xMyc tag displayed on yeast cells (human, UniProt Q07011 24-255).
T2 construct: whole, on cells; not used; also called hCD137; not shown: C-terminal 3xMyc tag
In words: FACS titration on yeast displaying full-length hCD137-3xMyc, no protease; data batch 4.

Experiment [3] has as its target T2, full-length human CD137 with C-terminal …. In words: KD divided by KD of parental antibody (TY21242 or TY23310); FACS on yeast hCD137; data batch 4.
The target of experiment [4] is T1, hCD137 (antigen of the ELISA and FACS …). Description: ELISA on hCD137.
For experiment [5] the target is unchanged. Description: FACS-based assay on hCD137.
For experiment [6] the target is unchanged. Description: FACS KD relative to parental antibody TY24122.
For experiment [7] the target is unchanged. In words: ELISA EC50 relative to parental antibody TY24122.
In experiment [8] the target is T3, His-tagged recombinant human FcγRIIa (human, UniProt P12318 36-218, limits assumed).
T3 construct: His-tagged; also called hFcγRIIa
T3 sequence (looked up): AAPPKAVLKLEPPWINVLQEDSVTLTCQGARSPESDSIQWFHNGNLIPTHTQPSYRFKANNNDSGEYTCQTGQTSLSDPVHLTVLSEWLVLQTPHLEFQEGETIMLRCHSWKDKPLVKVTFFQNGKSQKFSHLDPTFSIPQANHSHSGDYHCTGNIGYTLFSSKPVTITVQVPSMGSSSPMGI
In words: BLI (Fortebio), His-tagged FcγR captured on anti-Penta-His sensor, antibody in solution, steady state analysis. For orientation: Biolayer interferometry detects binding as a change in optical thickness at a sensor tip.

The target in experiment [9] is T4, His-tagged recombinant human FcγRIIb (human, UniProt P31994 46-217, limits assumed).
T4 construct: His-tagged; also called hFcγRIIb
T4 sequence (looked up): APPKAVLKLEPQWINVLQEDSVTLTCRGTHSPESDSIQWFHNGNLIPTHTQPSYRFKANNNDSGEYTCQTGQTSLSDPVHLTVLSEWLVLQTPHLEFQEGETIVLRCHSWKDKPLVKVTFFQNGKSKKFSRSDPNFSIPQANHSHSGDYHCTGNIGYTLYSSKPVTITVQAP
Described as above.

B1: TY25366 (antibody, human IgG4 S228P, kappa)
heavy: EVQLVESGGGLVQPGGSLRLSCAASGFSLSTGGVGVGWIRQAPGKGLEWLALIDWADDKYYSPSLKSRLTISRDNSKNTLYLQLNSLRAEDTAVYYCARGGSDTVIGDWFAYWGQGTLVTVSSASTKGPSVFPLAPCSRSTSESTAALGCLVKDYFPEPVTVSWNSGALTSGVHTFPAVLQSSGLYSLSSVVTVPSSSLGTKTYTCNVDHKPSNTKVDKRVESKYGPPCPPCPAPEFLGGPSVFLFPPKPKDTLMISRTPEVTCVVVDVEQEDPEVQFNWYVDGVEVHNAKTKPREEQFNSTYRVVSVLTVLHQDWLNGKEYKCKVSNKGFPSSIEKTISKAKGQPREPQVYTLPPSQEEMTKNQVSLTCLVKGFYPSDIAVEWESNGQPENNYKTTPPVLDSDGSFFLYSRLTVDKSRWQEGNVFSCSVMHEALHNHYTQKSLSLSLGK
light: not shown
notes: also called untreated TY25366
Turning to B1, in experiment [1], the “EC50 (read off the curve)” value is about 10 nM. This molecule also gave a Kd in [2] of 64.6 nM. Further, the Masking efficiency in experiment [3] was 324 fold.

B2: TY24122 (antibody, human IgG4 S228P, kappa)
heavy: EVQLVESGGGLVQPGGSLRLSCAASGFSLSTGGVGVGWIRQAPGKGLEWLALIDWADDKYYSPSLKSRLTISRDNSKNTLYLQLNSLRAEDTAVYYCARGGSDTVIGDWFAYWGQGTLVTVSSASTKGPSVFPLAPCSRSTSESTAALGCLVKDYFPEPVTVSWNSGALTSGVHTFPAVLQSSGLYSLSSVVTVPSSSLGTKTYTCNVDHKPSNTKVDKRVESKYGPPCPPCPAPEFLGGPSVFLFPPKPKDTLMISRTPEVTCVVVDVEQEDPEVQFNWYVDGVEVHNAKTKPREEQFNSTYRVVSVLTVLHQDWLNGKEYKCKVSNKGFPSSIEKTISKAKGQPREPQVYTLPPSQEEMTKNQVSLTCLVKGFYPSDIAVEWESNGQPENNYKTTPPVLDSDGSFFLYSRLTVDKSRWQEGNVFSCSVMHEALHNHYTQKSLSLSLGK
light: not shown
B2 showed an EC50 in experiment [4] of 0.31 nM. The Kd in experiment [5] turned out to be 0.141 nM; in experiment [8], 5.85 nM; in [9], 5.06 nM. Moreover, the Masking efficiency in experiment [6] and in experiment [7] was 1 fold throughout.

The term EC50 (read off the curve) denotes the concentration that produces a half-maximal response. A high value points to lower potency in that assay. The Kd is the free concentration of one partner at which half of the binding sites on the other are occupied at equilibrium, for simple one-to-one binding. As usually defined, the EC50 is the concentration at which the effect is half-maximal. Low values mean a more potent agent, high ones a less potent agent.
